Key:
[1] = biological target: Human chorionic gonadotropin (human) (UniProt P01215); assay: bead sandwich, flow cytometry; capture B2 beads, no hCG (background)
Alpha fetoprotein [2] = biological target: Alpha fetoprotein (UniProt P02771); assay: MAB602 capture beads, flow cytometry; AFP 10.0 ng/mL, anti-AFP probe
[3] = biological target: Human chorionic gonadotropin (human) (UniProt P01215); assay: bead sandwich, flow cytometry; capture B1 (AB633) beads, no hCG (background)
[4] = biological target: Human chorionic gonadotropin (human) (UniProt P01215); assay: bead sandwich, flow cytometry; capture B2 beads, hCG 20.0 ug/mL
Alpha fetoprotein [5] = biological target: Alpha fetoprotein (UniProt P02771); assay: MAB602 capture beads, flow cytometry; AFP 0.1 ng/mL, anti-AFP probe
Alpha fetoprotein [6] = biological target: Alpha fetoprotein (UniProt P02771); assay: MAB602 capture beads, flow cytometry; AFP 100.0 ng/mL, anti-AFP probe
Alpha fetoprotein [7] = biological target: Alpha fetoprotein (UniProt P02771); assay: MAB602 capture beads, flow cytometry; AFP 1.0 ng/mL, anti-AFP probe
Alpha fetoprotein [8] = biological target: Alpha fetoprotein (UniProt P02771); assay: MAB602 capture beads, flow cytometry; AFP 0.0 ng/mL, anti-AFP probe
Alpha fetoprotein [9] = biological target: Alpha fetoprotein (UniProt P02771); assay: MAB602 capture beads, flow cytometry; AFP 1000.0 ng/mL, anti-AFP probe
[10] = biological target: Human chorionic gonadotropin (human) (UniProt P01215); assay: bead sandwich, flow cytometry; capture B1 (AB633) beads, hCG 20.0 ug/mL

Sequence of UniProt P02771 (P02771 19-609 limits assumed): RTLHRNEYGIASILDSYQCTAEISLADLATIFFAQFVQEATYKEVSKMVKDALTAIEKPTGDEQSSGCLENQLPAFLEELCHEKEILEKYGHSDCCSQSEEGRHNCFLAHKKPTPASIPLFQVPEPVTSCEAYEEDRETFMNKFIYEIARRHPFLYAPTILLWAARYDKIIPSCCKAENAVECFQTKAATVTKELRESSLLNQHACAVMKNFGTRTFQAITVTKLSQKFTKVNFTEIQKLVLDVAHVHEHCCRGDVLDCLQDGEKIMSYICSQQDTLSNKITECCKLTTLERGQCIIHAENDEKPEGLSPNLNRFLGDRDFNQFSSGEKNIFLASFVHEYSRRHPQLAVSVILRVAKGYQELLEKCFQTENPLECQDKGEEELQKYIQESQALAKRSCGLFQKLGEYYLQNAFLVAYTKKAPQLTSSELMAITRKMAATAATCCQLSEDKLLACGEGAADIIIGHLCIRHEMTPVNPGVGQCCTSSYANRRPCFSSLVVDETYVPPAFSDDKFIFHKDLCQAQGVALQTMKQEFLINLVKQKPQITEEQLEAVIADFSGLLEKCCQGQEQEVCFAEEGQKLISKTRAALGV
Sequence of UniProt P01215 (P01215 25-116, chain 1 of 2, other chains not shown): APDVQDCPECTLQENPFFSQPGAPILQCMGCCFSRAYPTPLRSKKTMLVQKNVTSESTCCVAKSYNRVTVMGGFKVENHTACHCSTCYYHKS

Question: For MAB602 monoclonal anti-hCG antibody, which MIF of Fm [1] is on record?
Answer: 56

Question: What about the MIF of Fm (Alpha fetoprotein [2]) of the same substance?
Answer: 48

Question: And the MIF of Fm [3]?
Answer: 33

Question: What about the MIF of Fm [4] of the same substance?
Answer: 886

Question: What about the MIF of Fm (Alpha fetoprotein [5]) of the same substance?
Answer: 48

Question: And the MIF of Fm (Alpha fetoprotein [6])?
Answer: 48

Question: What about the MIF of Fm (Alpha fetoprotein [7]) of the same substance?
Answer: 48

Question: And the MIF of Fm (Alpha fetoprotein [8])?
Answer: 48

Question: What about the MIF of Fm (Alpha fetoprotein [9]) of the same substance?
Answer: 52

Question: What about the MIF of Fm [10] of the same substance?
Answer: 107
